Test results from PMC7368010, “Global translation during early development depends on the essential transcription factor PRDM10”.

T1: GST-PRDM10 441-880 (central zinc finger array) (UniProt Q3UTQ7 441-880)
T1 sequence: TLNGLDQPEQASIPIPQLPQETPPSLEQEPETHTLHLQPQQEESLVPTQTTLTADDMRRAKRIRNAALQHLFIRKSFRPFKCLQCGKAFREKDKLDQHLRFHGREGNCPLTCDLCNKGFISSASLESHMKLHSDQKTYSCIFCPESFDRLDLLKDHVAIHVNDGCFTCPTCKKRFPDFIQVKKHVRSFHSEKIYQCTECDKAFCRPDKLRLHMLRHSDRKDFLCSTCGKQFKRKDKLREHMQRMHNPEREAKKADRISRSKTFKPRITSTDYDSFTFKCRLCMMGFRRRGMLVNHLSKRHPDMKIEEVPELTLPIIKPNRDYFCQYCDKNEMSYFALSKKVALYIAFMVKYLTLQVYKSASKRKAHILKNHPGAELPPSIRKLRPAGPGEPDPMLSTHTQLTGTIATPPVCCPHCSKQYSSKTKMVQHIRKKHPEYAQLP


How the values were obtained:
[1] = target: T1, GST-PRDM10 441-880 (central zinc finger …); test: EMSA; 125-1000 nM protein, 10 nM probe; 0.4 uM ZnCl2; EMSA: 6 mM HEPES-KOH pH 7.9, 6% glycerol, 100 ug/mL BSA, 0.4 uM ZnCl2, 20 ug/mL poly(dI-dC), room temperature 20 min; 6% native PAGE in 0.25x TBE; settings: protein: recombinant; tags: GST; label: 5'-biotin; blunt
[2] = target: T1, GST-PRDM10 441-880 (central zinc finger …); test: competition; EMSA, 20- to 320-fold excess over 10 nM labeled WT probe; 0.4 uM ZnCl2; EMSA: 6 mM HEPES-KOH pH 7.9, 6% glycerol, 100 ug/mL BSA, 0.4 uM ZnCl2, 20 ug/mL poly(dI-dC), room temperature 20 min; 6% native PAGE in 0.25x TBE; settings: protein: recombinant; tags: GST; blunt

Binder	binding result [1]	binding result [2]
WT probe (dsDNA) DNA 1: CTGGCACAGTGGTCGCGCCCGGCCCGCC DNA 2: GGCGGGCCGGGCGCGACCACTGTGCCAG	binds	–
WT unlabeled competitor (dsDNA) DNA 1: CTGGCACAGTGGTCGCGCCCGGCCCGCC DNA 2: GGCGGGCCGGGCGCGACCACTGTGCCAG	–	binds
